The experiment addresses G protein (Gi) purified from rabbit liver (rabbit). Briefly: cell-based or functional assay.

Regarding LSFLIPAGWVLSHLDHYKRSSAA [cytochrome C oxidase subunit peptide-1 (COSP-1)], the “GTPase activity of Gi” value was about 6 fold.
